The target of experiment [1] is T1, hPD-L1(ECD)-His (human, UniProt Q9NZQ7). Nature of the experiment: SPR.
Experiment [2] has as its target T1, hPD-L1(ECD)-His. Nature of the experiment: SPR. This is another data set of the same source. For orientation: SPR reads the build-up and loss of mass on a sensor chip optically.
For experiment [3], the target named is T1, hPD-L1(ECD)-His. In words: SPR. This is another data set of the same source.
Experiment [4] deals with T1, hPD-L1(ECD)-His. Nature of the experiment: SPR supernatant.
Experiment [5] has as its target T2, human PD-L1 full length (on CHO cells) (human, UniProt Q9NZQ7). In words: competition FACS vs PD-1.
The target of experiment [6] is T2, human PD-L1 full length (on CHO cells). In words: competition FACS vs CD80.
The target of experiment [7] is T1, hPD-L1(ECD)-His. Nature of the experiment: SPR. This is another data set of the same source.
In another experiment the target is cPD-L1(ECD)-His (cynomolgus). Nature of the experiment: ELISA. On the technique in general: An ELISA detects its analyte on a solid surface through an enzyme-linked reagent.
In experiment [8] the target is T2, human PD-L1 full length (on CHO cells). In words: FACS. On the technique in general: A flow cytometer gives signals particle by particle.
Experiment [9] addresses T1, hPD-L1(ECD)-His. Nature of the experiment: ELISA.

T1 sequence (Q9NZQ7 19-238): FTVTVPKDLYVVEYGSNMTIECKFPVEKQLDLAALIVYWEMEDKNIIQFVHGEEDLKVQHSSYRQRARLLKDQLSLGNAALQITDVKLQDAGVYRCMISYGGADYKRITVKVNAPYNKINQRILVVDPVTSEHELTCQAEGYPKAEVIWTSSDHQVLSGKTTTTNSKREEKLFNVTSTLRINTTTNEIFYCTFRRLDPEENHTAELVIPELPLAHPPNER
T2 sequence (Q9NZQ7 19-238): as above
Chain of cPD-L1(ECD)-His (cynomolgus) (chain, as listed by the source): as the sequence (Q9NZQ7 19-238) above, with A33T, A34S, S62N, R68Q, Q82R, F173L, T185A, T192I, H215L counted along it

B1: ALGA105S PD-L1 arm (antibody, V domains shown)
VH: EVQLVQSGAEVKKPGATVKISCKVSGFNIEDTYIYWVQQAPGKGLEWMGWIDPANYNTKYDPRFQDRVTITVDTSTDTAYMELSSLRSEDTAVYYCARGLRLLMDYWGQGTTVTVSS
VL: DIQLTQSPSFLSASVGDRVTITCKASQNVHTSLAWYQQKPGKSPKLLIYLASNRHTGVPSRFSGSGSGTEFTLTISSLQPEDFATYYCLQHWNYPLTFGQGTKLEIKR
Regarding B1, the Kd with hPD-L1(ECD)-His [1] and with hPD-L1(ECD)-His [2] was 0.824 nM throughout.

B2: PD-L1-1.168.15-z3-uIgG1K (antibody, V domains shown)
VH: EVQLVQSGAEVKKPGATVKISCKVSGFNIEDTYIYWVQQAPGKGLEWMGWIDPANYNTKYDPRFQDRVTITVDTSTDTAYMELSSLRSEDTAVYYCARGLRLLMDYWGQGTTVTVSS
VL: DIQLTQSPSFLSASVGDRVTITCKASQNVHTSLAWYQQKPGKAPKLLIYLASNRHTGVPSRFSGSGSGTEFTLTISSLQPEDFATYYCLQHWNYPLTFGQGTKLEIKR
Turning to B2, the equilibrium dissociation constant (Kd) (as a rule, the concentration at which binding is half-saturated) with hPD-L1(ECD)-His [3] came out at 0.876 nM; in the experiment with hPD-L1(ECD)-His [4], 0.837 nM.

B3: PD-L1-1.168.15-z4-uIgG1K (antibody, V domains shown)
VH: EVQLVQSGAEVKKPGATVKISCKVSGFNIEDTYIYWVQQAPGKGLEWMGWIDPANYNTKYDPRFQDRVTITVDTSTDTAYMELSSLRSEDTAVYYCARGLRLLMDYWGQGTTVTVSS
VL: DIQLTQSPSFLSASVGDRVTITCKASQNVHTSLAWYQQKPGKSPKLLIYLASNRHTGVPSRFSGSGSGTEFTLTISSLQPEDFATYYCLQHWNYPLTFGQGTKLEIKR
Consider B3, for which the Kd with hPD-L1(ECD)-His [1] was 0.647 nM; in the experiment with hPD-L1(ECD)-His [3], 0.613 nM; with hPD-L1(ECD)-His [4], 0.775 nM.

B4: ALGA105X PD-L1 arm (antibody, V domains shown)
VH: EVQLVQSGAEVKKPGATVKISCKVSGFNIEDTYIYWVQQAPGKGLEWMGWIDPANYNTKYDPRFQDRVTITVDTSTDTAYMELSSLRSEDTAVYYCARGLRLLMDYWGQGTTVTVSS
VL: DIQLTQSPSFLSASVGDRVTITCKASQNVHTSLAWYQQKPGKSPKLLIYLASNRHTGVPSRFSGSGSGTEFTLTISSLQPEDFATYYCLQHWNYPLTFGQGTKLEIKR
For B4, the Kd with hPD-L1(ECD)-His [1] and with hPD-L1(ECD)-His [2] was 0.822 nM throughout.

B5: PD-L1-1.168.15-z11-uIgG1K (antibody)
chain 1: not shown
chain 2: DIQMTQSPSFLSASVGDRVTITCKASQNVHTSLAWYQQKPGKSPKALIYLASNRHTGVPSRFSGSGSGTEFTLTISSLQPEDFATYFCLQHWNYPLTFGQGTKLEIKRTVAAPSVFIFPPSDEQLKSGTASVVCLLNNFYPREAKVQWKVDNALQSGNSQESVTEQDSKDSTYSLSSTLTLSKADYEKHKVYACEVTHQGLSSPVTKSFNRGEC
Take B5: the values for the dissociation constant (Kd) with hPD-L1(ECD)-His [3] and with hPD-L1(ECD)-His [4] were 0.62 nM and 0.863 nM, respectively.

B6: PD-L1-1.168.15 (antibody, V domains shown)
VH: EVQLQQSGAELVKPGASVKLSCTVSGFNIEDTYIYWVKQRPEQGLEWIGWIDPANYNTKYDPRFQDKATVTVDTSSNTAYMHLSSLTSEDTAVYYCARGLRLLMDYWGQGTSVTVSS
VL: DIVMTQSQKFMSSSVGDRVSITCKASQNVHTSLAWYQQRPGQSPKALIYLASNRHTGVPDRFTGSGSGTDFTLTISNVQSEDLADYFCLQHWNYPLTFGAGTKLELRR
For the molecule B6, the IC50 (usually the concentration that inhibits the measured activity by half) turned out to be 3 nM in experiment [5] and 2.07 nM in experiment [6]. For the same molecule, in the experiment with hPD-L1(ECD)-His [7], binding was characterised by a dissociation constant (Kd) of 0.295 nM. Further, the EC50 (commonly the concentration at which the effect is half-maximal) with cPD-L1(ECD)-His was 0.38 nM; in [8] it was 1.02 nM; with hPD-L1(ECD)-His [9], 0.028 nM.

B7: PD-L1-1.168.15-xIgG1K (antibody, V domains shown)
VH: EVQLQQSGAELVKPGASVKLSCTVSGFNIEDTYIYWVKQRPEQGLEWIGWIDPANYNTKYDPRFQDKATVTVDTSSNTAYMHLSSLTSEDTAVYYCARGLRLLMDYWGQGTSVTVSS
VL: DIVMTQSQKFMSSSVGDRVSITCKASQNVHTSLAWYQQRPGQSPKALIYLASNRHTGVPDRFTGSGSGTDFTLTISNVQSEDLADYFCLQHWNYPLTFGAGTKLELRR
B7: the Kd stood at 0.275 nM in the experiment with hPD-L1(ECD)-His [3] and 0.379 nM in the experiment with hPD-L1(ECD)-His [4].

Values taken from patent US20260373285 (published 2026).
